The record followed here is US20250092426, “CAS ENDONUCLEASES AND RELATED METHODS” (Flagship Pioneering Innovations VII, LLC, published 2025).

The data set has as its target T1, CasEnd-22 (synthetic construct).
T1 chain: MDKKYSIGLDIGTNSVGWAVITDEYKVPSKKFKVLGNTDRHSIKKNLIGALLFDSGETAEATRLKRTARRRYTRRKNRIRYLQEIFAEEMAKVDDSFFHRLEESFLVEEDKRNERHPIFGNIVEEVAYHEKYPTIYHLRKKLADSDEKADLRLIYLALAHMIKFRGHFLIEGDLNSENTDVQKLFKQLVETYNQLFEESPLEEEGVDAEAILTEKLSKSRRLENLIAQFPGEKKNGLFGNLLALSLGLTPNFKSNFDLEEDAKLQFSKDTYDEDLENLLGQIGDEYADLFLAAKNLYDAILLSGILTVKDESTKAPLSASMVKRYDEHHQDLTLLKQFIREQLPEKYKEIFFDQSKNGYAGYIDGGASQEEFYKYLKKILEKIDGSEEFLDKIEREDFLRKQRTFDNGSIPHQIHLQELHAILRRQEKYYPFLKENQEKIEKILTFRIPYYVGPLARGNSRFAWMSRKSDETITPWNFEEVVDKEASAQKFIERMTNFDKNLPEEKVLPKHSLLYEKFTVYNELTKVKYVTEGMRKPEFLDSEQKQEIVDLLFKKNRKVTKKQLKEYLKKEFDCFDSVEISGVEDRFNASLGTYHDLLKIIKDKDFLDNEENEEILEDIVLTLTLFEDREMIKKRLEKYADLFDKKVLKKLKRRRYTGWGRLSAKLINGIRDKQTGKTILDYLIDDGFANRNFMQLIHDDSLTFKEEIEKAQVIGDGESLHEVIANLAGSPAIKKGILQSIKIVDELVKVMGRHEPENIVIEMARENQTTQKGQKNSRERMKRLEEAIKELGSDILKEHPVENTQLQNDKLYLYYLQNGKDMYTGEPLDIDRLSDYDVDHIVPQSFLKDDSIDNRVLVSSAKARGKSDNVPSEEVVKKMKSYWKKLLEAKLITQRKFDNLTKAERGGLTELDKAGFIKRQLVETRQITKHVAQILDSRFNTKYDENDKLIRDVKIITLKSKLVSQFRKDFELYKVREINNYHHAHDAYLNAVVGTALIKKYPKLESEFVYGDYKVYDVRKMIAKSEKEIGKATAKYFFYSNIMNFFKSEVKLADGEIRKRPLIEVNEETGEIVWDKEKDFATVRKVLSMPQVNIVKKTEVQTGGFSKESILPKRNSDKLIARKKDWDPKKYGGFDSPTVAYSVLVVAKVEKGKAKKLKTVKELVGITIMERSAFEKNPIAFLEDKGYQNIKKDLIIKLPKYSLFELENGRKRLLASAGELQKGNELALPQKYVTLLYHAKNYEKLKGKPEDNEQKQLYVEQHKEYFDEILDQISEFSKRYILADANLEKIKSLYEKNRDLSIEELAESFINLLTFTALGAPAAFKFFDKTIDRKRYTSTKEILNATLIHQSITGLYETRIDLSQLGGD
In words: cell_activity; +++; HEK293T; PAM not stated. Here is the method:
The ability of the candidate endonucleases, including endonucleases 1-38 (CasEnds 1-38) (set forth in Table 1 and SEQ ID NOS: 1-38, respectively), to mediate target nucleic acid editing was assessed utilizing a blue fluorescent protein (BFP) to green fluorescent protein (GFP) conversion assay, wherein programmed nucleotide editing of the BFP gene was measured by the expression of GFP (signifying the conversion of […] via the programmed nucleotide edit in the BFP gene). The conversion assay was conducted utilizing the reverse transcriptase-based system (as described above in Example 2) comprising a template RNA (designed to convert BFP to GFP) and a fusion protein comprising a retroviral reverse transcriptase and the individual subject Cas endonuclease. The amino acid sequence of the base portion of the fusion protein (without the individual subject Cas endonuclease) is set forth in Table 7 (SEQ ID NO: 43).
Briefly, 200 ng of plasmid DNA encoding the subject fusion protein (containing one of the subject CasEnds) and 200 ng of template RNA (in plasmid format) were added to 25 μL SF buffer containing 250,000 HEK293T BFP-expressing cells. Nucleofection was mediated utilizing program DS-150. The day of nucleofection was marked as day 0. At day 4, the cells were harvested and analyzed by flow cytometry to assess the level of BFP and GFP expression in HEK293T cells. Cells having GFP signal were defined as having undergone a successful editing event, and the percent of cells that were GFP+ on day 4 was used to determine the performance of each Cas endonuclease.

Some results are limits rather than exact numbers.

B1: BFP-to-GFP template RNA ; BFP reporter protospacer (ssRNA ; dsDNA)
RNA: GCCGAAGCACUGCACGCCGUGUUUUAGAGCUAGAAAUAGCAAGUUAAAAUAAGGCUAGUCCGUUAUCAACUUGAAAAAGUGGCACCGAGUCGGUGCACCCUGACGUACGGCGUGCAGUGCUU
DNA 1: GCCGAAGCACTGCACGCCGT
DNA 2: ACGGCGTGCAGTGCTTCGGC
On to B1, for which the activity was ≥ 100 % of reference.
